US20140120115A1 (MorphoSys, published 2014)

Experiments:
[1] = biological target: T1, recombinant human D-dopachrome tautomerase (D-DT) (human, UniProt P30046 2-118, biotinylated (Amersham ECL Protein Biotinylation kit; sites not stated)); test: ELISA, IgG at 6.25 nM on biotinylated human D-DT on neutravidin plate
T1 construct: Used biotinylated on neutravidin plates; also called human D-DT
Protocol: (§1) Cross-reactivity of antibodies to human MIF and human D-DT was determined by ELISA. Biotinylated recombinant human MIF or D-DT with a concentration of 1 μg/ml were coated on reacti-bind neutravidin coated black 384-well plates (Thermo Scientifc) for 1, 5 h at room temperature. Reacti-bind neutravidin plates had been pretreated with PBS/5% skim milk powder before. After washing with PBST purified IgGs were applied in a concentration of 6.25 nM on a MIF or a D-DT coated plate respectively and incubated for 2 hours at room temperature. After subsequent washing antigen-specific bound IgG was detected via AP-Goat-anti-human IgG Fc-γ fragment specific (Fa Jackson ImmunoResearch) secondary antibody and application of Attophos (Fa ROCHE) according to the manufacturer's manual. Fluorescence intensity was measured via Tecan Reader GeniosPro and fluorescence intensity for the individual clones was compared to control antibody.

[2] = biological target: T1, recombinant human D-dopachrome …; test: ELISA, antibody at 6.25 nM on recombinant D-DT (FIG. 2)
Protocol: as §1

[3] = biological target: T2, recombinant human macrophage migration inhibitory factor (MIF) (human, UniProt P14174 2-115, biotinylated (Amersham ECL Protein Biotinylation kit; sites not stated)); test: ELISA, IgG titrated (0-166 nM) on biotinylated human MIF on neutravidin plate
T2 construct: also called human MIF; biotinylated MIF
T2 sequence (P14174 2-115 limits assumed): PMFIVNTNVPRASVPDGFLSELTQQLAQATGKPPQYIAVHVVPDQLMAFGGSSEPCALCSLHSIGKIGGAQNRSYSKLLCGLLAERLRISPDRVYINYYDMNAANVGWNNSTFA
Protocol: (§2) For further characterization, the EC₅₀ concentration for each of the cross-reactive antibodies to MIF and to D-DT was determined based on the ELISA setting according to Example 1. Concentrations of each of the individual antibodies were titrated and 8 distinct concentrations from 0 nM to 166 nM were applied side by side on a plate coated with MIF and a plate coated with D-DT. Biotinylated recombinant human MIF or D-DT with a concentration of 1 μg/ml were coated on reacti-bind neutravidin coated black 384-well plates (Thermo Scientifc) for 1, 5 h at room temperature. Reacti-bind neutravidin plates had been pretreated with PBS/5% skim milk powder before. After washing with PBST purified IgGs were added to the MIF or D-DT coated plate respectively and incubated for 2 hours at room temperature. After subsequent washing antigen-specific bound IgG was detected via AP-Goat-anti-human IgG Fc-γ fragment specific (Fa Jackson ImmunoResearch) secondary antibody and application of Attophos (Fa ROCHE) according to the manufacturer's manual. Fluorescence intensity was measured via Tecan Reader GeniosPro and fluorescence intensity for the individual clones was plotted in a typical antibody titration curve. EC₅₀ values were determined with the program GraphPad Prism using non-linear regression analysis.

[4] = biological target: T1, recombinant human D-dopachrome …; test: ELISA; upper end of the group's range, tied to A on D-DT by Table 2
Protocol: as §2

[5] = biological target: T2, recombinant human macrophage migration …; test: ELISA, IgG at 6.25 nM on biotinylated human MIF on neutravidin plate
Protocol: as §1

[6] = biological target: T1, recombinant human D-dopachrome …; test: ELISA, IgG titrated (0-166 nM) on biotinylated human D-DT on neutravidin plate
Protocol: as §2

[7] = biological target: T2, recombinant human macrophage migration …; test: ELISA, antibody at 6.25 nM on recombinant MIF (FIG. 2)
Protocol: as §1

[8] = biological target: T2, recombinant human macrophage migration …; test: ELISA; lower end of the group's range, tied to C on MIF by Table 2
Protocol: as §2

T1 sequence (P30046 2-118 limits assumed): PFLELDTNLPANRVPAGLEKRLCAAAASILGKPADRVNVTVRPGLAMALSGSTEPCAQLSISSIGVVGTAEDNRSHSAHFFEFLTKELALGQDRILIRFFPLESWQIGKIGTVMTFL

fold signal intensity compared to the negative control [1] [fold]	fold fluorescence intensity above background [2] [fold]	EC50 [3] [nM]	EC50 [4] [nM]	fold signal intensity compared to the negative control [5] [fold]	EC50 [6] [nM]	fold fluorescence intensity above background [7] [fold]	EC50 [8] [nM]	Binder
≥ 5	> 5	1.14	22	≥ 5	21.2	> 5		MOR014093 (antibody, V domains shown, also called antibody A) VH: QVQLLESGGGLVQPGGSLRLSCAASGFTFSDYYMDWVRQAPGKGLEWVSAISSSGSTTYYADSVKGRFTISRDNSKNTLYLQMNSLRAEDTAVYYCARGNLFGSTYVMGFDHWGQGTLVTVSS VL: DIELTQPPSVSVSPGQTASITCSGDSIGSTHVSWYQQKPGQAPVLVIYRKSNRPSGIPERFSGSNSGNTATLTISGTQAEDEADYYCSSWDSESVVFGGGTKLTVLG
≥ 5	> 5	0.486		≥ 5	8.47	> 5		MOR014116 (antibody, V domains shown, also called antibody B) VH: QVQLVQSGAEVKKPGSSVKVSCKASGGTFSDYAISWVRQAPGQGLEWMGLIIPLFGTANYAQKFQGRVTITADESTSTAYMELSSLRSEDTAVYYCARSPAYQLVTPYYYVSDWFDVWGQGTLVTVSS VL: DIVLTQPPSVSGAPGQRVTISCSGSSSNIGSNYVSWYQQLPGTAPKLLIYDNSERPSGVPDRFSGSKSGTSASLAITGLQAEDEADYYCQSWDASPWSYVFGGGTKLTVLG
≥ 5	> 5	0.36		≥ 5	2.29	> 5	0.3	MOR014138 (antibody, V domains shown, also called antibody C) VH: QVQLVQSGAEVKKPGSSVKVSCKASGGTFTSYAIHWVRQAPGQGLEWMGRIIPHFGTAYYAQKFQGRVTITADESTSTAYMELSSLRSEDTAVYYCARVQVYMSVLGWGYENYMDVWGQGTLVTVSS VL: DIVLTQSPATLSLSPGERATLSCRASQSVSAFQLGWYQQKPGQAPRLLIYGASTRATGIPARFSGSGSGTDFTLTISSLEPEDFAVYYCQQYIQYPYTFGQGTKVEIKR
